Measured values published in patent publication US8053627B2, “Methods for treating demyelination disorders” (University of Chicago, priority 2005, dated 2011).

How the values were obtained:
[1] = tested on: cells; settings: Boyce, et al. (2005); cited from earlier work
[2] = tested on: Hippocampal organotypic cultures; experiment: Hippocampal organotypic cultures (HOC), in vitro model of myelination, MBP Western blot; assay type: cell-based; settings: 7 days; for reduction of MBP expression elicited by IFN-γ exposure: SAL at various concentrations combined with 100 U/ml IFN-γ
Description: HOCs, were prepared and maintained as described previously (Kunkler and Kraig (1997) J Cereb Blood Flow Metab. 17:2643), and were maintained in vitro for 7 days before use. SAL at various concentrations was combined with 100 U/ml IFN-γ and added to the HOC cultures for 7 days. […] After 7 days of 100 U/ml IFN-γ exposure, the levels of MBP decreased approximately 80% in the HOCs (FIG. 29).

[3] = target: PP1-GADD34 phosphatase (Homo sapiens, UniProt O75807); settings: Boyce, et al. (2005); cited from earlier work
[4] = tested on: oligodendrocytes and myelin; experiment: IFN-γ-overexpressing mice crossed to PLP/SOCS1 mice, clinical and histological evaluation at postnatal day 21; assay type: in vivo; settings: for Incidence of tremor: ten mice per group; for oligodendrocyte density: corpus callosum, postnatal day 21
Description: IFN-γ-overexpressing mice were crossed to the PLP/SOCS1 mice in double-transgenic, (MBP/IFN-γ×PLP/SOCS1) and triple-transgenic (GFAP/tTA×TRE/IFN-γ×PLP/SOCS1) mating systems. MBP/IFN-γ×PLP/SOCS1 (172×PLP/SOCS1) mating was performed according to a standard mating protocol. The GFAP/tTA×TRE/IFN-γ×PLP/SOCS1 matings were performed in a 2-step mating process: GFAP/tTA mice were initially crossed to PLP/SOCS1 mice, and double-positive (184×PLP/SOCS1) offspring were then crossed to the TRE/IFN-γ lines 110 and 67, separately. This second mating step was performed according to the previously described “tet-off” protocol. Doxycycline 0.05 mg/ml (Sigma-Aldich) was added to the water of impregnated female mice until embryonic day 14, after which the animals were switched back to normal water, thereby allowing initiation of IFN-γ transcription, which peaks during the postnatal period (Lin et al., 2005).
The litters of the mating systems (F1 generation) were examined daily and sacrificed at postnatal day 21. Clinical evaluation included behavioral observation and challenged ladder walking to elicit tremor. Histological examination included quantitation of the number and density of oligodendrocytes and examination of the myelination patterns. Brain tissue was simultaneously obtained from each animal at the time of sacrifice to verify and measure the expression of IFN-γ and Flag-SOCS1 (see below). The clinical and histological findings were subsequently stratified according to genotype. All animal procedures were conducted in compliance with the National Institutes of Health Guide for Care and Use of Laboratory Animals and were approved by the Institutional Animal Care and Use Committee at The University of Chicago.
Oligodendrocyte cell density was assessed digitally using Axiovision software, at postnatal day 21, as previously described (Lin et al., 2005). The brains were sectioned sagittally through the corpus callosum dividing the brain in two symmetrical halves. Ten frozen sections from each half were prepared at 7 μm thickness, and numbered in the sequence of their preparation. The brains of three animals per study group were prepared in this fashion. Following the CC1 immunostaining the corresponding area of corpus callosum of each section was digitally selected and the corresponding total area obtained. CC1 cell counting was performed manually within the selected areas of each section, and the number of CC1 positive cells per square area (mm^2) calculated. The results were presented as mean±SD of CC1 (+) cells/mm^2 with n=3 animals per study group.
Myelination patterns of the examined animals were assessed at postnatal day 21 by calculating the percent unmyelinated axons and ratio of the axon/fiber diameters (G ratio) with Image J software (National Institutes of Health, Bethesda, Md.) as previously described (Lin at al., 2005). The brains were sectioned sagittally through the corpus callosum dividing the brain in two symmetrical halves. Approximately 2 mm^3 samples from the genu and the splenum of both halves of corpus callosum were obtained using a Wild M3C stereotype microscope. The orientation of the specimen in the resin blocks yielding axonal cross-sections (well seen myelin rings) was chosen, and established by toluedine blue staining of a few sample sections. The resin blocks with the chosen orientation were processed for electron microscope examination. Randomly selected areas were examined and ten representative pictures from both genu and splenum corpus callosum were obtained at 12000× magnification. The number of unmyelinated axons was assessed by manual counting of axons that lacked myelin and were encircled solely by their own plasma membrane. All unmyelinated axons present in the representative images were counted, and their percentage calculated by examining a total of five hundred axons per tissue sample. […]

Sequence of PP1-GADD34 phosphatase (O75807 whole entry): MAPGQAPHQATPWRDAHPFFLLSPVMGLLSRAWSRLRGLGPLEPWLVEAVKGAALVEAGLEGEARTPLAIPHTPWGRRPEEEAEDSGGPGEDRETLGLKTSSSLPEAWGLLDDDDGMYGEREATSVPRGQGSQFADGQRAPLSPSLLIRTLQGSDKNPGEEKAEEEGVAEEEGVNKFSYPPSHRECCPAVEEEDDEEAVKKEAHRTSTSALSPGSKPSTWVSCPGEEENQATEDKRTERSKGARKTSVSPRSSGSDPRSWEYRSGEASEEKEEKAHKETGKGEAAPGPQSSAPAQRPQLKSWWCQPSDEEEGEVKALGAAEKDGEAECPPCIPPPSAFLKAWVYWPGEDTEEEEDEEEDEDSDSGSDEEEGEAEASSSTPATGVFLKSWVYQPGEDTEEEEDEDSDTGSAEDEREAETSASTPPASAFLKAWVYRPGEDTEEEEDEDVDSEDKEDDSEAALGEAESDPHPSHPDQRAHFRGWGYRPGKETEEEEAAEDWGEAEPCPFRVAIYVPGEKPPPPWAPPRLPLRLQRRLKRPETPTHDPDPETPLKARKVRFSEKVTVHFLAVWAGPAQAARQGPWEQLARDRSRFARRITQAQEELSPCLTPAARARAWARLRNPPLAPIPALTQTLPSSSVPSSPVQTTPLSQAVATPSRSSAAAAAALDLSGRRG

Row | Molecule | protection of cells from ER stress and viral infection [1] | reduction of MBP expression elicited by IFN-γ exposure [2] | reduction of MBP expression elicited by IFN-γ exposure ([2]; listed as Sal) | MBP expression ([2]; SAL treatment alone) | PP1-GADD34 phosphatase activity [3] | Incidence of tremor ([4]; 172 × PLP/SOCS1 littermates) | oligodendrocyte density ([4]; 184/67 system) | Incidence of tremor ([4]; 184/67 × PLP/SOCS1 littermates) | oligodendrocyte density ([4]; 184/110 system) | Incidence of tremor ([4]; 184/110 × PLP/SOCS1 littermates) | MHC class I molecule expression (immunostaining) ([4]; MBP/IFN-γ and MBP/IFN-γ×PLP/SOCS1 brains)
1 | O=C(/C=C/c1ccccc1)NC(NC(=S)Nc1cccc2cccnc12)C(Cl)(Cl)Cl (centres unmarked) [SAL, salubrinal] | protects cells from ER stress and viral infection | markedly attenuated | attenuating effect | did not affect | specifically inhibits |  |  |  |  |  | 
2 | SOCS1: suppressor of cytokine signaling 1, Flag-tagged, expressed in oligodendrocytes from the PLP/SOCS1 transgene (protein, UniProt O35716 1-212, looked up, FLAG tag, suppressor of cytokine signaling 1, Flag-tagged, expressed in oligodendrocytes from the PLP/SOCS1 transgene) Suppressor of cytokine …: MVARNQVAADNAISPAAEPRRRSEPSSSSSSSSPAAPVRPRPCPAVPAPAPGDTHFRTFRSHSDYRRITRTSALLDACGFYWGPLSVHGAHERLRAEPVGTFLVRDSRQRNCFFALSVKMASGPTSIRVHFQAGRFHLDGSRETFDCLFELLEHYVAAPRRMLGAPLRQRRVRPLQELCRQRIVAAVGRENLARIPLNPVLRDYLSSFPFQI |  |  |  |  |  | 0% | 142±5 CC1 (+) cells/mm^2 | 0% | 141±6 CC1 (+) cells/mm^2 | 0% | did not express detectable levels
